Consider one molecule from publication PMC3679363 (Molecular cell, 2013).

This experiment has as its target recombinant His-Tip60α ( (human or mouse cDNA cloned), UniProt Q92993 1-513). As to the kind of experiment: pull-down.

recombinant His-Tip60α, sequence (Q92993 whole entry): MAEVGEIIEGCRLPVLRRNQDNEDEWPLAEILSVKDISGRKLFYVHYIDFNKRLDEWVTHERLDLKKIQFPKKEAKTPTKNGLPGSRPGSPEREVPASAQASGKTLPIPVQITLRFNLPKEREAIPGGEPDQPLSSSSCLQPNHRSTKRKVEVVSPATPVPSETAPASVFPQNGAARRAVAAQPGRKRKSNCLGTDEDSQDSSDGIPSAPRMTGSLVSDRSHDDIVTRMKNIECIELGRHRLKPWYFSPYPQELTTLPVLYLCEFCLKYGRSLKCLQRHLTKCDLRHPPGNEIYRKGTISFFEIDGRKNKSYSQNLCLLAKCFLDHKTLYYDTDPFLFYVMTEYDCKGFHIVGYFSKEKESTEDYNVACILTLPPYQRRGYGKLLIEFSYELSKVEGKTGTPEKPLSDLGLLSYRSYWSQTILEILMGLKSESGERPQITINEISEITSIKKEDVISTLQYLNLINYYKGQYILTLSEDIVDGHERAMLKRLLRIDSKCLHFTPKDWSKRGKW

B1: GST-PRAK (enzyme, UniProt Q8IW41 1-473, looked up)
chain: MSEESDMDKAIKETSILEEYSINWTQKLGAGISGPVRVCVKKSTQERFALKILLDRPKARNEVRLHMMCATHPNIVQIIEVFANSVQFPHESSPRARLLIVMEMMEGGELFHRISQHRHFTEKQASQVTKQIALALRHCHLLNIAHRDLKPENLLFKDNSLDAPVKLCDFGFAKIDQGDLMTPQFTPYYVAPQVLEAQRRHQKEKSGIIPTSPTPYTYNKSCDLWSLGVIIYVMLCGYPPFYSKHHSRTIPKDMRRKIMTGSFEFPEEEWSQISEMAKDVVRKLLKVKPEERLTIEGVLDHPWLNSTEALDNVLPSAQLMMDKAVVAGIQQAHAEQLANMRIQDLKVSLKPLHSVNNPILRKRKLLGTKPKDSVYIHDHENGAEDSNVALEKLRDVIAQCILPQAGKGENEDEKLNEVMQEAWKYNRECKLLRDTLQSFSWNGRGFTDKVDRLKLAEIVKQVIEEQTTSHESQ
Consider B1, for which the binding result is recorded as “binds”.
